In the supplement of paper PMC9170038:

System: MS2 coat protein
Test: apparent KD of MS2 coat protein; designed switch direction (-1 OFF switch, 1 ON switch): -1; higher = weaker reporter binding
Procedure, shortened: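 Three titration conditions were used: no input, 200 uM small-molecule ligand, and an oligonucleotide input. In each, SNAP-549-labelled MS2 coat protein was raised from 0.7 or 1.5 nM, doubling, to 3 µM over designed RNA switches transcribed on Illumina chips by stalled E. coli RNA polymerase. Curve fits of normalised cluster fluorescence gave values whose per-design median over clusters is the apparent KD.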

[1] = Eterna round: R95, input ligand: FMN 200 uM
[2] = Eterna round: R95, input ligand: microRNA oligo, concentration not stated
[3] = Eterna round: R95, input ligand: none
[4] = input ligand: microRNA oligo, concentration not stated

Sequence | apparent KD of MS2 coat protein (input ligand: FMN 200 uM) [nM] | apparent KD of MS2 coat protein (input ligand: none) [nM] | apparent KD of MS2 coat protein [1] [nM] | apparent KD of MS2 coat protein [2] [nM] | apparent KD of MS2 coat protein [3] [nM] | apparent KD of MS2 coat protein [4] [nM]
UAAGAGUAUGUUAGGAUAUGCUGGUCCUUGGAUCAGCAGAAGGAACAUGAGGAUCACCCAUGUAGAAUCUUUUA [Mod of JL 17 - Jieux - Brourd's mod of Exclusion 4] (Eterna round: R97, puzzle: Brourd's mod of Exclusion 4) | 74.8 | 21.3 |  |  |  | 
CCAGUGUGAGGAUAUACAUGGAUAGUUUUAUAUAGUAUGUUACAUGAGGAUCACCCAUGUAGAAGGUAUAUCGG [15.1, 13.8 kcal, A 31%] (Eterna round: R97, puzzle: Exclusion 2) | 22.5 | 28.7 |  |  |  | 
AAGAACAGAGGAUAUCGCGGGCAGCACAUGAGGAUCACCCAUGUGAUGCUCCGCGGGCCGCGAGAAGGCUGAAAUG [Dizabe] (puzzle: Exclusion 5) |  |  | 14.2 | 9.5 | 12.9 | 
AACUAGUCAGGAUAUACGAACAUGUCAAAAAACAUAAAGGGACAUGAGGAUCACCCAUGUAGAAGGGACUAGCA [74%, Web mod - With 4 less G's] (Eterna round: R96, puzzle: Exclusion 2) |  |  |  |  |  | 150
AUUUAGCGAGGAUAUACCAACGUGAUCUUCGACUGAGCGGCACUUGAGGAUCACCCAAGUAGAAGGCGCACUAU [Onleindian] (Eterna round: R97, puzzle: Exclusion 2) | 346 | 207 |  |  |  | 
CCCAGUUACGGAGGAUAUUGUACAUGAGGAUCACCCAUGUAAUAAAUGAGGAUUUCGGGUGUCUACAAGAAGGCCGGGAUAGGC [Ostracism 18 - Jieux - Exclusion NG 2] (Eterna round: R96, puzzle: Exclusion NG 2) | 262 | 66 |  |  |  | 85.3
UCAUGGGAGGCAGCUGCCCACAUGAGGAUCACCCAUGUUUUAGACAAACGGGUACAAGCUUUUAAUGCUCUUCUUUG [Eternabot (L2) Solution 49] (Eterna round: R97, puzzle: Sensor, turn-off variant 1) | 587 | 248 |  |  |  | 
AUAGUGUGAGGAUAUCGGACCAGUCCAGUUAGGAGCAGGAUCGAGAAGGUACAUGAGGAUCACCCAUGUGACCA [Eternabot (L2) Solution 8] (Eterna round: R97, puzzle: Exclusion 4) | 30.8 | 16.8 |  |  |  | 
AACCCUAGGGUCAGACGCACAAGCUUUUUGCUCGUUUUAACAUGAGGAUCACCCAUGUCUAGUGGAUCUGAUCGGGC [Isreen] (puzzle: Sensor v3, turn-off variant 2) |  |  | 24.7 | 137 | 26.2 | 
GGUAAGCUAGGAUAUGCUUUGGGAAAGCAUUCCUUCGAUAAACUUGAGGAUCACCCAAGUAGAAGGAGCUUACU [salish99_ex2_r4_014] (Eterna round: R97, puzzle: Exclusion 2) | 19.2 | 14.4 |  |  |  | 
UUUAAUUUUUUUUUUUUACAAGCUUUUUGCUCGUCUUAUACAUGAGGAUCACCCAUGUGAAUGGGAAGUAAAUUAUC [JMF 51] (puzzle: Sensor v3, turn-off variant 2) |  |  | 103 | 183 | 148 | 
AUACGUCAAGUCAGGAUAUAUACCGCGACUACGGCGUAGAAGGGACAUGAGGAUCACCCAUGUAAAAGGGCAAA [Ceerrilaza] (puzzle: Brourd's mod of Exclusion 4) |  |  | 37.7 | 36.5 | 34.5 | 
CUUUUGUGAGGAUAUCAGUAGUAAAAGAAUAAAAUUACUACUGAGAAGGCACAUGAGGAUCACCCAUGUUCCUC [Mat - Exclusion 4 - Mod of Salish - D61] (puzzle: Exclusion 4) |  |  |  | 36.7 |  | 
AAGAAGCGAGGAUAUACAGGCGGCGACAUGAGGAUCACCCAUGUGGUGGCCCACGCCGUGGUAGAAGGCGUUAAAG [Ordiceinri] (Eterna round: R97, puzzle: Exclusion 5) | 228 | 245 |  |  |  | 
CUGAGCAGACGGAGAUCCAACAUGAGGAUCACCCAUGUCUCAAAAGCUUUUUGCUCAUCUUAUCGUACCUUGGUGCU [JL ViennaUCT Edcesobi mod 1] (puzzle: Sensor v3, turn-off variant 1) |  |  | 406 | 20.2 | 445 | 
GGAGGACGAGCAGGAUAUUUUUACAUGAGGAUCACCCAUGUGUACUCAGGGUAAUCCUCCGCCGAAAAGAAGGGUUCGGAAGAA [JL ViennaUCT Socedi mod 4] (Eterna round: R96, puzzle: Exclusion NG 2) | 124 | 63.2 |  |  |  | 41.6
ACAUGAGGAUCACCCAUGUGAAAAGAAUGGCUGACACAGAGAUAGGAUAUAUGUGCAUAUCUAACAUAGAAGGGUCAUGACUGG [Deportation 79 - Jieux - Exclusion NG 3] (Eterna round: R96, puzzle: Exclusion NG 3) | 28.6 | 33.1 |  |  |  | 21.6

Sequence | apparent KD of MS2 coat protein (input ligand: FMN 200 uM) [nM] | apparent KD of MS2 coat protein (input ligand: none) [nM] | apparent KD of MS2 coat protein [1] [nM] | apparent KD of MS2 coat protein [2] [nM] | apparent KD of MS2 coat protein [3] [nM] | apparent KD of MS2 coat protein [4] [nM]
UCGAUGCGAGGAUAUACUAAGGCAACUACUGCAGCUCAAAAACAUGAGGAUCACCCAUGUAGAAGGCGCAUAUA [JR_Exc002_Sub304] (Eterna round: R96, puzzle: Exclusion 2) |  |  |  |  |  | 12.9
GGAAUGUAAGGAUAUCCGAAAAGCGAGCGAAAGCGAGCAAAGGAGAAGGUACAUGAGGAUCACCCAUGUAAGGG [AK-MS2ROC-r4-exclusion4-12] (Eterna round: R97, puzzle: Exclusion 4) | 58.9 | 768 |  |  |  | 
UCGCUGCGAGGAUAUACAUGAGGAUCACCCAUGUACGGGUCCGGGUCUUCGUCCAUUAGUAGAAGGCGCAGUGA [JL Laongeedie mod 2] (puzzle: Exclusion 3) |  |  |  | 47.7 |  | 
GCGGAGAUCGUAUGAUAAUACAUGAGGAUCACCCAUGUGUAUACGAUGCAUGGUACCCGCCGCUUUGCUUGUCUUGC [Eternabot (L1) Solution 30] (Eterna round: R97, puzzle: Sensor, turn-off variant 1) | 16.4 | 16.7 |  |  |  | 
AAAGAACAUGAGGAUCACCCAUGUGAGGAUAUGUGAGAAUUGUGGAGAAGAAGAGAGAACAGAAGGCACUGAGG [JR_Exclu1_Sub067] (puzzle: Exclusion 1) |  |  | 77 | 51.3 | 64.5 | 
CUAGUAUAUCAGGAUAUGAUUUUAUAUAUUGGAUCAGAAGGGAUAACAUGAGGAUCACCCAUGUUAAGGAGUGA [JR_Ex6_Sub040] (Eterna round: R97, puzzle: Exclusion 6) | 155 | 45 |  |  |  | 
CCAAUGUAAGGAUAUCGUGCAAGUUUCAAAAGAGGCUUGUGCGAGAAGGUACAUGAGGAUCACCCAUGUAGGUU [Omei Ex4 B2] (Eterna round: R97, puzzle: Exclusion 4) | 340 | 78.4 |  |  |  | 
UGCAGACGAGGAUAUGAUUAAUAAUACAUGAGGAUCACCCAUGUAAUACUGAUCUAUGGAUCAGAAGGUGUCUGCA [E5/6-B2] (Eterna round: R97, puzzle: Exclusion 5) | 17.7 | 28.3 |  |  |  | 
UUUUUGUUUUUGUUUUUUGACAUGAGGAUCACCCAUGUCACGAGCAGAUCUUCAUGCAAGCUUUUUGCUCGUCUUAU [Sensor v3 - Turn-off variant 1 - 39] (puzzle: Sensor v3, turn-off variant 1) |  |  | 62.8 | 46.9 | 83.3 | 
UCAUGUUUAGAGGAUAUGAUUACUUUAGAGUAAUCAGAAGGCUAGACAUGAGGAUCACCCAUGUCAUAACAUGA [Exclusion 6 - B - 15:a] (puzzle: Exclusion 6) |  |  | 38.3 | 62 | 54.3 | 
AGUACUAACACGAGAGUGUUAGUACUAUAAGCUUGUGUUACAUGAGGAUCACCCAUGUCCUCAUAGGCUCGUCUUAA [Mat - Sensor v3 - Turn-off var 2 - D82] (puzzle: Sensor v3, turn-off variant 2) |  |  | 75.8 | 75.5 | 81.4 | 
AAGAGCGUAGGAUAUACAUGAGGAUCACCCAUGUGAGGAGGGAAAAGGAGGUGUGGAAGUAGAAGGACGGAGUG [JR_Exclu3_Sub080] (puzzle: Exclusion 3) |  |  | 31.8 | 30.9 | 36.5 | 
GAUUAUGCGAGCUUUAGGGACAUGAGGAUCACCCAUGUUCGUCUUAUUGGUCUAGGUGCGCUAACAUACCUAAAUCU [JMF 51] (puzzle: Sensor v3, turn-off variant 1) |  |  | 21.9 | 34.8 | 25.4 | 
GCCGCUGUAGGAUAUGCCAGGGUGGCAGCUUGAUGUGUGGCACAUGAGGAUCACCCAUGUAGAAGGACAGAAAG [Isvelera] (puzzle: Exclusion 2) |  |  |  | 17.1 |  | 
AGUUAGAUAGGAUAUGCCCGAGAUAACAUGAGGAUCACCCAUGUGACCGAAUCUAUUCUAGCAGAAGGGUUUAGGA [Mod of ViennaUCT 18 - Jieux - Exclusion 5] (Eterna round: R97, puzzle: Exclusion 5) | 23.6 | 31.3 |  |  |  | 
CAAAACCUAGGAUAUACAUGAGGAUCACCCAUGUCGGGCCUACGCGAAACGCGCCUCAGUAGAAGGAGGGAAAC [Riri] (puzzle: Exclusion 3) |  |  | 180 | 46.8 | 70.5 | 
AGUAACAGAGGAUAUACUGUUUUAUGUGUUUAUUAUUUUGAACAUGAGGAUCACCCAUGUAGAAGGCUGAAUAA [JMF 90] (puzzle: Exclusion 2) |  |  |  | 21.8 |  | 
